Paper PMC8967717 (Nature, 2022)

B1: XGv347 (antibody, V domains shown)
VH: QMQLVQSGPEVKKPGTSVKVSCKASGFTFTDVSSLQWVRQARGQRLEWIGWTVVGTGNTNYAPRFQERVTITTDKSTSTAYMELSSLRSEDTAVYYCAAPFCSETSCSDGFDLWGQGTKVTVSS
VL: EIVLTQSPGTLSLSPGDRATLSCRASQSVRISYLAWYQQKPGQAPRLLISGSSSRATGIPDRFSASGSGTDFALTISRLEPEDFAVYYCQQYDNSPWTFGQGTKVEVK
B2: XGv289 (antibody, V domains shown)
VH: QVQLVQSGAEVKKPGASLKVSCRASGYTFTSHFIHWVRQAPGQGLEWMGIINPSGGASYAQNFRDRVTMTTDPSTSTVYMELGSLRSEDTAVYYCARAEGSSWLGWFDPWGQGTLVTVSS
VL: QSVLTQPPSASGTPGQRVTIPCSGSSSNIGNNYVYWYQQLPGTAPKLLVYGNNQRPSGVPDRFSVSKSGTSASLAISGLRSEDEADYYCAAWDDGLSGSGWVFGGGTKLTVL
B3: XGv282 (antibody, V domains shown)
VH: QVQLVQSGAEVKKPGSSVKVSCKASGDTFSSYTFSWVRQAPGQGLEWMGRSIPIVGKAIYAQEFQGRVTISADRSTTTVYMELSSLRSDDTAVYYCARDQSGFDFFYYDHWGQGTLVAVSS
VL: QSVLTQPPSASGTPGQRVTISCSGSGSNIGSNTINWYQQLPGTAPKVLIYRNNERPSGVPDRFSGSKSGTSASLTISGLQSEDEAYYHCAAWDDSLNGPVFGGGTKLTVL

Molecular target: SARS-CoV-2 wild-type spike receptor-binding domain (SARS-CoV-2, WT (MN908947), UniProt P0DTC2)
Assay: BLI
Settings: both partners purified

Binder | Kd
B1 | 0.0814 nM
B2 | 0.515 nM
B3 | 0.344 nM

Molecular target: SARS-CoV-2 wild-type spike N-terminal domain (SARS-CoV-2, WT (MN908947), UniProt P0DTC2)
Assay: ELISA
Settings: both partners purified

Binder | binding result
B1 | no binding
B2 | no binding
B3 | no binding
